Article PMC2191085

Legend:
[1] = molecular target: CD2 on human PBLs (human (endogenous in PBLs)) (UniProt P06729)
[2] = molecular target: CD2 on Jurkat cells (human (endogenous in Jurkat)) (UniProt P06729); assay: inhibition of cell rosetting

**Q.** For “LFA3TIP (first domain-LFA-3/IgG1 fusion protein) (Fc fusion)”, which inhibition of T cell proliferation in response to HBsAg, LFA3TIP at 2 ug/ml [1] is on record?
**A.** Its inhibition of T cell proliferation in response to HBsAg, LFA3TIP at 2 ug/ml is 85%.

**Q.** For “multimeric phosphoinositol-linked LFA-3 (PI-LFA-3) (ligand)”, which fold lower concentration than LFA3TIP for inhibition of rosetting [2] is on record?
**A.** Its fold lower concentration than LFA3TIP for inhibition of rosetting is 300 fold.
